Key:
cynomolgus serum albumin [1] = molecular target: T1, cynomolgus serum albumin (cynomolgus); test: binding ELISA, coated albumin, pH 7.4
T1 construct: also called CSA; cyno serum albumin

rabbit serum albumin = rabbit serum albumin (rabbit, UniProt P49065 25-608); test: binding ELISA, coated albumin, pH 7.4
equine serum albumin = equine serum albumin (equine, UniProt P35747 25-607); test: binding ELISA, coated albumin, pH 7.4
canine serum albumin = canine serum albumin (canine, UniProt P49822 25-608); test: binding ELISA, coated albumin, pH 7.4
porcine serum albumin = porcine serum albumin (porcine, UniProt P08835 25-607); test: binding ELISA, coated albumin, pH 7.4
rat serum albumin = rat serum albumin (rat, UniProt P02770 25-608); test: binding ELISA, coated albumin, pH 7.4
human serum albumin [2] = molecular target: T2, human serum albumin (human, UniProt P02768 25-609); test: binding ELISA, coated albumin, pH 7.4
T2 construct: mature; Bought protein; biotinylated in the Octet and HTRF assays; also called HSA; HuSA

mouse serum albumin [3] = molecular target: T3, mouse serum albumin (mouse, UniProt P07724 25-608); test: binding ELISA, coated albumin, pH 7.4
T3 construct: also called MSA

human serum albumin [4] = molecular target: T2, human serum albumin; test: Biacore, immobilised HSA, pH 7.4
Method: (§1) Affinities for mouse, human, and cynomolgus serum were also measured at pH 7.4 for four (4) AFFIMER® binders using surface plasmon resonance (SPR) (FIG. 5, Table 5). […] A concentration titration of AFFIMER® monomers was run as analyte at a flow rate of 30 μl/min or 60 μl/min. Fc2-1, Fc3-1 and Fc4-1 kinetic data was blank subtracted and fit to a 1:1 Langmuir binding model (BIAcore Evalution software; GE) to calculate KD values.

human serum albumin [5] = molecular target: T2, human serum albumin; test: Biacore, immobilised HSA, pH 7.4; remark: listed apart in the source
Method: as §1
The AFFIMER® polypeptides were produced and purified from E. coli as described in Example 3.

mouse serum albumin [6] = molecular target: T3, mouse serum albumin; test: binding ELISA on coated MSA, pH 6.0
Method: (§2) Human (Sigma-Aldrich); Cynomolgus and Mouse (Abcam); Equine (Abcam); Canine (Abcam); Mouse (Sigma-Aldrich); Rabbit (Sigma-Aldrich); Porcine (Sigma-Aldrich);, and Rat (Sigma-Aldrich) serum albumin were coated overnight on 96 well plates (Corning Costar) at 1 μg/ml in PBS at the appropriate pH (pH 6.0 or 7.4). Plates were saturated using 5% Casein (Sigma-Aldrich) buffer in PBS. […] Plates were then washed and AFFIMER® proteins were detected using a biotinylated polyclonal antibody anti-Cystatin (R&D System) for 90 minutes. After washing, streptavidin-HRP (Thermo Fisher Scientific) was added and incubated for 30 minutes.
(§3) Briefly, PD-1 was coated overnight on the plate at 1 μg/ml in carbonate buffer. Then plates were saturated using 5% Casein/PBS buffer. […] After saturation, the mix was added to the plates and incubated for 90 minutes. Plates were then washed and the detection polyclonal antibody, biotinylated anti-PD-L1, was added. After washing the plates, streptavidin-HRP was added for 30 minutes. After a final wash, development of the reaction was performed using TMB (Pierce) and the plates were read using a plate reader at 450 nm (FIG. 26C).

human serum albumin [7] = molecular target: T2, human serum albumin; test: SPR (Biacore), immobilised HSA, Affimer analyte
cynomolgus serum albumin [8] = molecular target: T1, cynomolgus serum albumin; test: SPR (Biacore T200), albumin amine-coupled to CM5, Affimer analyte, pH 7.4
Method: as §1

human serum albumin [9] = molecular target: T2, human serum albumin; test: as above
Method: as §1

mouse serum albumin [10] = molecular target: T3, mouse serum albumin; test: as above
Method: as §1

mouse serum albumin [11] = molecular target: T3, mouse serum albumin; test: binding ELISA on coated albumin, pH 6.0, panel 'MSA Binding at pH 6.0'
Method: Briefly, ELISA was performed as follow:
as §2

cynomolgus serum albumin [12] = molecular target: T1, cynomolgus serum albumin; test: Octet biolayer interferometry, biotinylated albumin on SA sensors, pH 7.4
Outline: (§4)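 SA sensor, antigen 1 μg/ml × 600 s; buffer PBS-T 0.01% Tween 20 + 1% casein, pH 6.0 or 7.4; 25° C, 1000 rpm. 1:1 global fit, Rmax unlinked.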

human serum albumin [13] = molecular target: T2, human serum albumin; test: as above
Outline: as §4

mouse serum albumin [14] = molecular target: T3, mouse serum albumin; test: as above
Outline: as §4

mouse serum albumin [15] = molecular target: T3, mouse serum albumin; test: binding ELISA on coated MSA, panel title 'Affimer binding to MSA, pH 7' (legend: pH 7.4)
Method: as §2, §3

T3 sequence (P07724 25-608 limits assumed): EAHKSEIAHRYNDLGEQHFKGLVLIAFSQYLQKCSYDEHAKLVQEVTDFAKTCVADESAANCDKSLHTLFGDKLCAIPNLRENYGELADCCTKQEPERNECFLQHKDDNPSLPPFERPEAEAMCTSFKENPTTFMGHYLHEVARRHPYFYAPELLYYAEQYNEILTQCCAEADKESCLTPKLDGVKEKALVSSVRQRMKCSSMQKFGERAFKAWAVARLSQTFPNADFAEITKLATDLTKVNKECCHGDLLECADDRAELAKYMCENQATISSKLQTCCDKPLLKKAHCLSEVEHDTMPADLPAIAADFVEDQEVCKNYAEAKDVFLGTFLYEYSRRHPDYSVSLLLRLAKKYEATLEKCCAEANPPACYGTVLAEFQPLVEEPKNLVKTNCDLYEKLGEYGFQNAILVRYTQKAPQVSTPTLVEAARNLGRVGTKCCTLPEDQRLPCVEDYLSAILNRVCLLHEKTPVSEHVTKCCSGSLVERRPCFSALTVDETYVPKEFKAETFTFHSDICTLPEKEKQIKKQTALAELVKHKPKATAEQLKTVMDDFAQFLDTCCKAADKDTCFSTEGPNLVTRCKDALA
T1 sequence (A2V9Z4 25-608): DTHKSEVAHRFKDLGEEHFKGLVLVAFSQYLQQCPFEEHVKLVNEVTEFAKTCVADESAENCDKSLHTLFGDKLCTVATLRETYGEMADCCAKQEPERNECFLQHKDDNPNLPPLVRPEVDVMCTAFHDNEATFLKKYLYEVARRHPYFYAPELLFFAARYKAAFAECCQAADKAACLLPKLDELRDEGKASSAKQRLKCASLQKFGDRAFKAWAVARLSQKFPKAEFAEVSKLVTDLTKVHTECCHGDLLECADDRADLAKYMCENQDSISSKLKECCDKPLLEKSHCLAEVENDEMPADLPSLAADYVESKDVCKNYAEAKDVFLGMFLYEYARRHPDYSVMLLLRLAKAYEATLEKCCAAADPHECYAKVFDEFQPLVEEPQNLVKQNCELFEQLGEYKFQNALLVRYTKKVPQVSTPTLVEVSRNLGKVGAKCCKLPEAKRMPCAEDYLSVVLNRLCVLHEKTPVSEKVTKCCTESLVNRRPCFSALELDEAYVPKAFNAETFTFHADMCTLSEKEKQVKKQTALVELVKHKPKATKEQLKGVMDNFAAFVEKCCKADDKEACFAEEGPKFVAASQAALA
Sequence of canine serum albumin (P49822 25-608 limits assumed): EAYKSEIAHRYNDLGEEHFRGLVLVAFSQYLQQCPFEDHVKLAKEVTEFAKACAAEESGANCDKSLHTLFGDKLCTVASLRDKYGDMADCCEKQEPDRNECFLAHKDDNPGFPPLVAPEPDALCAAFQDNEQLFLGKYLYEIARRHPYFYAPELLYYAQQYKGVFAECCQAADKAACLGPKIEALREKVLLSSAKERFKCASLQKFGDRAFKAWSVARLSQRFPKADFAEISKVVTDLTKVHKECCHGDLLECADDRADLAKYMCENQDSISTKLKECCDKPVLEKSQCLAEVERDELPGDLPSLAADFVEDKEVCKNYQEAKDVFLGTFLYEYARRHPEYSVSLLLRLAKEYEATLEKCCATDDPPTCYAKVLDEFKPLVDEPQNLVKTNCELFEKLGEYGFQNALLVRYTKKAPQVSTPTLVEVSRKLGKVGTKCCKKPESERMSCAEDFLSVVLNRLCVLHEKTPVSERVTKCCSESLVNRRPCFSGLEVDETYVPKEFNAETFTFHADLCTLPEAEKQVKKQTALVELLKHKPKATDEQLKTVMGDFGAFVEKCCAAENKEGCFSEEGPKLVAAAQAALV
Sequence of rabbit serum albumin (P49065 25-608 limits assumed): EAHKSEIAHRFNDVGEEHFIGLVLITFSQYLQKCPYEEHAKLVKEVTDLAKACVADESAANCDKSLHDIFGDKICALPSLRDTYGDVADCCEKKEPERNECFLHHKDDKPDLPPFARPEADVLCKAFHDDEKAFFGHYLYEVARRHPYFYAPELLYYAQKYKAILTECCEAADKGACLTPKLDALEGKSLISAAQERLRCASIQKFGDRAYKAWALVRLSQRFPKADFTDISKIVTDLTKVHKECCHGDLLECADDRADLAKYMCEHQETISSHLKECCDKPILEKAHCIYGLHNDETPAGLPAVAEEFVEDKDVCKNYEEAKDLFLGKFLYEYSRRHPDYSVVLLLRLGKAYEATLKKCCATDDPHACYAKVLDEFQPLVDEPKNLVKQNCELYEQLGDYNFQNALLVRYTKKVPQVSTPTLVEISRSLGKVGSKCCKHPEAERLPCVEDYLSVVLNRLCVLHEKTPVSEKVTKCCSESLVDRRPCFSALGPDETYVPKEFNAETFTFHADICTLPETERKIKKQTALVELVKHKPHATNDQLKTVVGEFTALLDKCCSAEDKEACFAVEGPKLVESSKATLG
Sequence of porcine serum albumin (P08835 25-607 limits assumed): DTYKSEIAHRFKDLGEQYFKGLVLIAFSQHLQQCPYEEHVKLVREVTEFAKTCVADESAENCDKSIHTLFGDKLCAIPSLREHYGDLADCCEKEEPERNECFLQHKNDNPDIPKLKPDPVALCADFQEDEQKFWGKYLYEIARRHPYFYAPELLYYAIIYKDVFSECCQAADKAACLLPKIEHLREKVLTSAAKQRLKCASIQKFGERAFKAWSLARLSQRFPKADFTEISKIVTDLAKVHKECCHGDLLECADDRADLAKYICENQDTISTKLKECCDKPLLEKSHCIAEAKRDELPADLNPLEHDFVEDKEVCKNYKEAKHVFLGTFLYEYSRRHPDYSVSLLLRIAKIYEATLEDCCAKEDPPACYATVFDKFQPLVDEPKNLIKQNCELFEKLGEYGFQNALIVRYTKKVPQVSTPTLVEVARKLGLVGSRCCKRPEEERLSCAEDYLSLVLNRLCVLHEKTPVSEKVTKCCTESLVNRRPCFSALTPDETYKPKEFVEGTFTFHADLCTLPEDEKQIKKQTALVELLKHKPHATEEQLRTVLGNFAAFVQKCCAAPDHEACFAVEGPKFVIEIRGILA
Sequence of rat serum albumin (P02770 25-608 limits assumed): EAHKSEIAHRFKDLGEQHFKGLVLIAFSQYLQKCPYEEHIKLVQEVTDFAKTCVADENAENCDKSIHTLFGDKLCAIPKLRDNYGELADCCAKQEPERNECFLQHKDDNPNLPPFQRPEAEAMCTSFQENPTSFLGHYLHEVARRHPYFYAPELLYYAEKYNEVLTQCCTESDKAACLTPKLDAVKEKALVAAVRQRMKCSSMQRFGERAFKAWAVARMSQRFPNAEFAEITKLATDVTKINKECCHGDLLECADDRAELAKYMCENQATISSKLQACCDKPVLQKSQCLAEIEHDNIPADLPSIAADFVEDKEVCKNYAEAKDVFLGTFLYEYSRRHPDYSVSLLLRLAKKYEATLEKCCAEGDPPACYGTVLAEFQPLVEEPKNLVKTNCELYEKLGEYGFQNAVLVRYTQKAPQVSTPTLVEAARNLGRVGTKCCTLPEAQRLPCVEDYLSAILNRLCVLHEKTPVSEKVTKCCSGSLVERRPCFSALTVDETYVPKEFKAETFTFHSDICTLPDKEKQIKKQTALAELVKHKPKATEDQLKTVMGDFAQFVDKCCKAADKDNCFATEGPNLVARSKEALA
Sequence of equine serum albumin (P35747 25-607 limits assumed): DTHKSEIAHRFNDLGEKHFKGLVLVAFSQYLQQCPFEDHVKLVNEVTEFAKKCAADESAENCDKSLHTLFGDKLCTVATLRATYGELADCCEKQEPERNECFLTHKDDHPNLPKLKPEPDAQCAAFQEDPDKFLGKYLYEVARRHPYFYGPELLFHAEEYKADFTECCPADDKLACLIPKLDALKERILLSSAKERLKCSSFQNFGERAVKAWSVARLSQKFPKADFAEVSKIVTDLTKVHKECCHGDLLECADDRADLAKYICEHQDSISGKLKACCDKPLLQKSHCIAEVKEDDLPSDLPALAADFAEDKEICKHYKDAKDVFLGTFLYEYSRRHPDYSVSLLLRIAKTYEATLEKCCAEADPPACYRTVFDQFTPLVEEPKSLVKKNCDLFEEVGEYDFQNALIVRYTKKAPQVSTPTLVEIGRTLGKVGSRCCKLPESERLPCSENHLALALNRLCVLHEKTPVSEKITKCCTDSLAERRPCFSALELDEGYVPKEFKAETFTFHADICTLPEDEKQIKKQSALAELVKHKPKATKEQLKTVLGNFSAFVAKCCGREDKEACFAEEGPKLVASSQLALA

B1: HSA-41 (designed binder)
chain: MIPRGLSEAKPATPEIQEIVDKVKPQLEEKTNETYGKLEAVQYKTQVLANFFQRRWPGSTNYYIKVRAGDNKYMHLKVFNGPWKFRNTDRGADRVLTGYQVDKNKDDELTGFHHHHHH
notes: also called HSA-41 parent; HSA-41 AH parent
EC50 (cynomolgus serum albumin [1]): 12.8 nM
EC50 (rabbit serum albumin): 381 nM
EC50 (equine serum albumin): 150 nM
EC50 (canine serum albumin): 21.5 nM
EC50 (porcine serum albumin): 51.7 nM
EC50 (rat serum albumin): 4.18 nM
EC50 (human serum albumin [2]): 0.05 nM
EC50 (mouse serum albumin [3]): 42.5 nM
Kd (human serum albumin [4]): 3.34 nM
koff (human serum albumin [4]): 0.00563 s⁻¹
kon (human serum albumin [4]): 1.69e+06 M⁻¹ s⁻¹
Kd (human serum albumin [5]): 2.84 nM
koff (human serum albumin [5]): 0.00347 s⁻¹
kon (human serum albumin [5]): 1.22e+06 M⁻¹ s⁻¹
EC50 (read off the curve) (mouse serum albumin [6]): ~0.7 nM
Kd (human serum albumin [7]): 2.4 nM
koff (human serum albumin [7]): 0.00354 s⁻¹
kon (human serum albumin [7]): 1.48e+06 M⁻¹ s⁻¹
Kd (cynomolgus serum albumin [8]): 112 nM
koff (cynomolgus serum albumin [8]): 0.0546 s⁻¹
kon (cynomolgus serum albumin [8]): 488000 M⁻¹ s⁻¹
Kd (human serum albumin [9]): 2.59 nM
koff (human serum albumin [9]): 0.0037 s⁻¹
kon (human serum albumin [9]): 1.43e+06 M⁻¹ s⁻¹
Kd (mouse serum albumin [10]): 67.8 nM
koff (mouse serum albumin [10]): 0.139 s⁻¹
kon (mouse serum albumin [10]): 2.04e+06 M⁻¹ s⁻¹
EC50 (read off the curve) (mouse serum albumin [11]): ~0.7 nM
koff (cynomolgus serum albumin [12]): 0.0177 s⁻¹
kon (cynomolgus serum albumin [12]): 248000 M⁻¹ s⁻¹
koff (human serum albumin [13]): 0.00198 s⁻¹
kon (human serum albumin [13]): 379000 M⁻¹ s⁻¹
koff (mouse serum albumin [14]): 0.0318 s⁻¹
kon (mouse serum albumin [14]): 663000 M⁻¹ s⁻¹
EC50 (read off the curve) (mouse serum albumin [15]): ~6 nM

— patent US20230272011A1 (AVACTA LIFE SCIENCES, published 2023)
